Publication PMC11438860, “Human 8-oxoguanine glycosylase OGG1 binds nucleosome at the dsDNA ends and the super-helical locations”

Columns and labels:
[1] = target: OGG1(K249Q) (human, UniProt O15527 1-345, K249Q); assay: cryo-EM; protein:DNA 1.5:1; 8-oxoG flipped out, DNA bent 65 degrees; 3.6 A; EMSA: 40 mM HEPES pH 7.4, 50 mM NaCl, 5 mM bME, 5% glycerol, 30 min on ice, 4-20% native gel; cryo-EM OGG1-DNA assembly: 20 mM HEPES pH 7.4, 100 mM NaCl, 5 mM bME, on ice; conditions: protein: recombinant; tags: N-terminal 6His; blunt
[2] = target: full-length OGG1 (EMSA) (human, UniProt O15527 1-345); assay: EMSA; 2.5 uM DNA; all DNA shifted at 5 uM protein or above; two super-shift bands; EMSA: 40 mM HEPES pH 7.4, 50 mM NaCl, 5 mM bME, 5% glycerol, 30 min on ice, 4-20% native gel; cryo-EM OGG1-DNA assembly: 20 mM HEPES pH 7.4, 100 mM NaCl, 5 mM bME, on ice; conditions: protein: recombinant; blunt
full-length OGG1 (EMSA), sequence (O15527 whole entry): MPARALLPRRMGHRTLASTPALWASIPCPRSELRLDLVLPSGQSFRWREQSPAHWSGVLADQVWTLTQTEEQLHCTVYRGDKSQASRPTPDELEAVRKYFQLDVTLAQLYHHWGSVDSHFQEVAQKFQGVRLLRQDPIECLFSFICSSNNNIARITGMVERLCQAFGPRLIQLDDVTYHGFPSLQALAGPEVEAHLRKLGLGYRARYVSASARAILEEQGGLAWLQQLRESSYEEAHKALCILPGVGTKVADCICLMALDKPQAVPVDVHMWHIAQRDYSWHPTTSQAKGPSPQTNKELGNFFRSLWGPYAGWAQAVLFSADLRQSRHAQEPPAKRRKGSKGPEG

OGG1(K249Q), sequence (O15527 whole entry K249Q): as the sequence (O15527 whole entry) above, with K249Q counted along it

B1: 35-bp 8-oxoG DNA (dsDNA)
DNA 1: ATGCCTCGCAGAATCCCGCTGCCGAGGCCGCTCAA
DNA 2: TTGAGCGGCCTCGGCAGCGGGATTCTGCGAGGCAT
modifications: 8-oxo-dG at position 18 of strand 1 (text numbers it 17), within unmethylated Cp-8-oxoG
Q: Does B1 bind [1]?
A: binds

Q: Does B1 bind [2]?
A: binds
